Test results reported in PMC10912226, “Filament formation drives catalysis by glutaminase enzymes important in cancer progression” (Nature Communications, 2024).
Residue numbers refer to the chain shown, from its start. Names may count otherwise.

B1: human liver-type glutaminase GLS2, wild type, without the mitochondrial localization sequence (residue 38-602) (enzyme, UniProt Q9UI32 38-602, looked up)
chain: HHLSEAAAQGRETPHSHQPQHQDHDSSESGMLSRLGDLLFYTIAEGQERIPIHKFTTALKATGLQTSDPRLRDCMSEMHRVVQESSSGGLLDRDLFRKCVSSNIVLLTQAFRKKFVIPDFEEFTGHVDRIFEDVKELTGGKVAAYIPQLAKSNPDLWGVSLCTVDGQRHSVGHTKIPFCLQSCVKPLTYAISISTLGTDYVHKFVGKEPSGLRYNKLSLNEEGIPHNPMVNAGAIVVSSLIKMDCNKAEKFDFVLQYLNKMAGNEYMGFSNATFQSEKETGDRNYAIGYYLKEKKCFPKGVDMMAALDLYFQLCSVEVTCESGSVMAATLANGGICPITGESVLSAEAVRNTLSLMHSCGMYDFSGQFAFHVGLPAKSAVSGAILLVVPNVMGMMCLSPPLDKLGNSHRGTSFCQKLVSLFNFHNYDNLRHCARKLDPRREGAEIRNKTVVNLLFAAYSGDVSALRRFALSAMDMEQKDYDSRTALHVAAAEGHIEVVKFLIEACKVNPFAKDRWGNIPLDDAVQFNHLEVVKLLQDYQDSYTLSETQAEAAAEALSKENLESMV
notes: Tetramer in the apo state (cryo-EM); tetramers stack into filaments with glutamine and Pi; also called LGA; apo-GLS2; source: E. coli BL21 (DE3), purified (Co2+ TALON resin, HiTrap Q anion exchange, Superdex 200 SEC)
B2: human GLS2 (N308A) mutant (enzyme, UniProt Q9UI32 38-602, looked up)
chain: B1 chain with N271A
notes: liver-type glutaminase GLS2, human, residues 38-602, with N308A in the tetramer-tetramer (filament) interface; source: E. coli BL21 (DE3), purified (Co2+ TALON resin, HiTrap Q anion exchange, Superdex 200 SEC)

Columns and labels:
[1] = molecular target: the molecule itself; test: cryo-EM structure; GLS2 5 µM with 30 µM inhibitor 968 in 2% DMSO; 2D classification, dimer classes kept, 3.65 Å map, model not built
[2] = molecular target: the molecule itself; test: cryo-EM structure; apo-GLS2, 5 µM, no substrate or activator; single particle, C2 symmetry; step: subunits in the tetramer
[3] = molecular target: the molecule itself; test: negative stain electron microscopy; glutaminase 1 µM with glutamine 20 mM and inorganic phosphate (50-200 mM), RT, 30 s to 1 min after mixing (GAC Y466W with DMSO also 30 min); step: tetramers to filament

Protein	stoichiometry N [1]	stoichiometry N [2]	stoichiometry N [3]
B1	2	4	
B2			4
